In patent publication US7056679 (ANTYRA, dated 2006):
No end group written: not given here.

Molecular target: T1, DGI-2 (UniProt Q15004 1-111, limits assumed)
T1 construct: Soluble recombinant DGI-2 made by in vitro translation (RTS, pIVEX2.3-MCS vector) and coated on plates for the ELISA; vector tag not described; also called KIAA0101; DGI-2 polypeptide
T1 sequence (looked up): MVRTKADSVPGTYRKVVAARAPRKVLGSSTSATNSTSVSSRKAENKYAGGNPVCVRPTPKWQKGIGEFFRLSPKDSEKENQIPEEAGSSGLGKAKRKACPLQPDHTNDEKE
Assay: phage ELISA, coated DGI-2
Experimental: For analysis of individual target binders, colonies were picked and phage prepared as described above using helper phage, M13KO7. Ninety-six-well microtiter plates were coated with 500 ng/well of specific target protein, 500 ng/well lactate dehydrogenase (LDH) irrelevant or non-specific target, 500 ng/well of positive control antibody raised against ETAG, and negative control of non-fat milk powder-PBS 2% at 4° C. overnight. Plates were then blocked with 350 microliters/well PBS containing 2% non-fat milk for 1 hr at room temperature. One hundred microliters per well of phage from isolated clones were added and plates were incubated at room temperature for 2 hr after centrifuging samples for 20 minutes at 3500 rpm at 4° C. The phage solution was then removed, and the wells were washed three times with PBS at room temperature. Antibody raised against M13 conjugated to horseradish peroxidase (Pharmacia) was diluted 1:3000 in PBS-Tween and added to each well (100 µl/well). Incubation was for 1 hr at room temperature, followed by washing with PBS-(0.5%) Tween 3 times as described. Color was developed by addition of ABTS solution (100 µl/well; Boehringer, Indianapolis, Ind.). Plates were analyzed at 405 nm. A clone was considered "positive" if the $A405$ of the well was $\geq$2-fold over background.

B1: DGI-2-20F-PP-C3 (peptide)
peptide: LGRTFVWGTCLHLSVSRFGH
notes: on M13 phage, pIII fusion with E-tag
**Q.** Does B1 bind?
**A.** binds

B2: DGI-2-20F-PP-C4 (peptide)
peptide: SIILAGCVWVMPCGQNLGGV
modifications: not fully specified (bridges); cysteine pairing not given here
notes: as for B1
**Q.** Does B2 bind?
**A.** binds

B3: DGI-2-20R-3-B11 (peptide)
peptide: GWGCSVPGILCVGGHRQGGG
modifications: not fully specified; cysteine pairing not given here
notes: as for B1
**Q.** Does B3 bind?
**A.** binds

B4: DGI-2-20R-3-A6 (peptide)
peptide: GGGRESWGGGWFMGWGSGAG
notes: as for B1
**Q.** Does B4 bind?
**A.** binds

B5: DGI-2-40F-3-C8 (peptide)
peptide: YGTAGLFLRRACTMSDPGDPLGRRGYTGWGVLWDEWVTGS
notes: as for B1
**Q.** Does B5 bind?
**A.** binds

B6: DGI-2-20R-3-B12 (peptide)
peptide: DGKHLTKWSGRGWWSAWVGG
notes: as for B1
**Q.** Does B6 bind?
**A.** binds

B7: DGI-2-20F-4-F9 (peptide)
peptide: LPQSRWLSEAWASWVDGVVD
notes: as for B1
**Q.** Does B7 bind?
**A.** binds

B8: DGI-2-20R-3-C8 (peptide)
peptide: VVRQGCMAFSGLCSGVTESE
modifications: not fully specified; cysteine pairing not given here
notes: as for B1
**Q.** Does B8 bind?
**A.** binds

B9: DGI-2-40F-3-C424 (peptide)
peptide: TVKFQGVVQERSRIAGFRYCGDHAVSWGLAGCPALRDKLQ
notes: as for B1
**Q.** Does B9 bind?
**A.** binds

B10: DGI-2-20R-3-D7 (peptide)
peptide: VHSQGRMWAIPGLRGGTGAS
notes: as for B1
**Q.** Does B10 bind?
**A.** binds

B11: DGI-2-20R-3-C7 (peptide)
peptide: MGVVLECEGGWSIPGQTCYF
modifications: not fully specified; cysteine pairing not given here
notes: as for B1
**Q.** Does B11 bind?
**A.** binds

B12: DGI-2-20R-3-B3 (peptide)
peptide: MFQDVACDLWHSVRCLRRDV
modifications: not fully specified (bridges); cysteine pairing not given here
notes: as for B1
**Q.** Does B12 bind?
**A.** binds

B13: DGI-2-20F-PP-C7 (peptide)
peptide: SSVWATWGSDLRTFGSVGFL
notes: as for B1
**Q.** Does B13 bind?
**A.** binds

B14: DGI-2-20R-3-A7 (peptide)
peptide: VLQRSLWKDWVDGVMHGGGSRGV
notes: as for B1
**Q.** Does B14 bind?
**A.** binds

B15: DGI-2-20C-3-C1039 (peptide)
peptide: RPVVCLAGLTLAQFGWVFPGWRGWS
notes: as for B1
**Q.** Does B15 bind?
**A.** binds

B16: DGI-2-20R-4-G7 (peptide)
peptide: YTPASILTGFQRGYEGAGNG
notes: as for B1
**Q.** Does B16 bind?
**A.** binds

B17: DGI-2-40F-3-A1 (peptide)
peptide: REFFNQASRGAWGYMFREWVEG
notes: as for B1
**Q.** Does B17 bind?
**A.** binds

B18: DGI-2-20R-3-C4 (peptide)
peptide: SRPGWCSRGTAWGFPGCSSS
modifications: not fully specified (bridges); cysteine pairing not given here
notes: as for B1
**Q.** Does B18 bind?
**A.** binds

B19: DGI-2-20R-4-F1212 (peptide)
peptide: MSSTAWTDRILQRGIGLGPV
notes: as for B1
**Q.** Does B19 bind?
**A.** binds

B20: DGI-2-20R-4-E82 (peptide)
peptide: DAGIGWVGSMWFPPGCIGAC
modifications: not fully specified (bridges); cysteine pairing not given here
notes: as for B1
**Q.** Does B20 bind?
**A.** binds

B21: DGI-2-20F-PP-E6 (peptide)
peptide: EVFVSVWVFRFRVMPVTPGGT
notes: as for B1
**Q.** Does B21 bind?
**A.** binds

B22: DGI-2-20F-4-E3 (peptide)
peptide: RNWLDKDCVWMGDCGARAGE
notes: as for B1
**Q.** Does B22 bind?
**A.** binds

B23: DGI-2-20C-4-H316 (peptide)
peptide: RWSICRGLQYSIPGCAVEDLSDVMA
notes: as for B1
**Q.** Does B23 bind?
**A.** binds

B24: DGI-2-40F-3-D11 (peptide)
peptide: LHFGSVMGWRPPGSLWSRPFGQVHPRSWSGS
notes: as for B1
**Q.** Does B24 bind?
**A.** binds

B25: DGI-2-20R-4-H12 (peptide)
peptide: MSTLQGPGHLFQMLRRASLG
notes: as for B1
**Q.** Does B25 bind?
**A.** binds

B26: DGI-2-20F-3-C1 (peptide)
peptide: GSVLERGCLEFSGFCFSLGH
notes: as for B1
**Q.** Does B26 bind?
**A.** binds

B27: DGI-2-40F-4-F6 (peptide)
peptide: SYRNFAMQSSLQVRRGSVVEDGTCWWEGVRCYSG
notes: as for B1
**Q.** Does B27 bind?
**A.** binds

B28: DGI-2-20F-3-C12 (peptide)
peptide: LTPYSLARSWLSGRPSTGAT
notes: as for B1
**Q.** Does B28 bind?
**A.** binds

B29: DGI-2-20R-3-B7 (peptide)
peptide: SWRLWVSGELQGDRRKGLRG
notes: as for B1
**Q.** Does B29 bind?
**A.** binds

B30: DGI-2-20F-PP-D9 (peptide)
peptide: VRAVYSRDAYNEVGRWMRVGI
notes: as for B1
**Q.** Does B30 bind?
**A.** binds

B31: DGI-2-20R-4-H7 (peptide)
peptide: LSHPMSPLRAASQMALTQGV
notes: as for B1
**Q.** Does B31 bind?
**A.** binds

B32: DGI-2-20E-3-A1 (peptide)
peptide: CRNFGVIWGAGWVSPGCEDI
modifications: not fully specified
notes: as for B1
**Q.** Does B32 bind?
**A.** binds

B33: DGL-2-20R-3-B6 (peptide)
peptide: TSCQVMFLAGQHLLSRVPRL
notes: as for B1
**Q.** Does B33 bind?
**A.** binds

B34: DGI-2-20R-4-E2 (peptide)
peptide: TANGHRYGGCGLWCKWMSGM
modifications: not fully specified; cysteine pairing not given here
notes: as for B1
**Q.** Does B34 bind?
**A.** binds

B35: DGI-2-40F-3-D7 (peptide)
peptide: ALRSLGSGGFGWQAGRASPQGMTHFPYFGWSGMPTARVRP
notes: as for B1
**Q.** Does B35 bind?
**A.** binds

B36: DGI-2-40F-3-D6 (peptide)
peptide: GLEPVPFQTDKRIAMGWTREWLVNGYGAAHRRDARMQSGH
notes: as for B1
**Q.** Does B36 bind?
**A.** binds

B37: DGI-2-20F-3-B102 (peptide)
peptide: GLRACDTYLGFCVGARRIDD
notes: as for B1
**Q.** Does B37 bind?
**A.** binds

B38: DGI-2-20F-PP-A3 (peptide)
peptide: SLFERSARSRYHGSPDCNGS
notes: as for B1
**Q.** Does B38 bind?
**A.** binds

B39: DGI-2-40F-3-D12 (peptide)
peptide: QGSAHVVRPPGVYDVPWKVGMFFHPQNWPNSWGRAYFRSG
notes: as for B1
**Q.** Does B39 bind?
**A.** binds

B40: DGI-2-20R-4-F6 (peptide)
peptide: GNKCFPPHDLFWDPCDQLQS
modifications: not fully specified (bridges); cysteine pairing not given here
notes: as for B1
**Q.** Does B40 bind?
**A.** binds

B41: DGL-2-20R-3-D6 (peptide)
peptide: ACSVGTALVFPQRWWYLGRS
notes: as for B1
**Q.** Does B41 bind?
**A.** binds
